The target in test [1] is Human FXIIa (activated Factor XII) (human) (UniProt P00748). Put plainly: cell-based or functional assay.
Test [2] concerns the target Human FXIIa beta (human) (UniProt P00748). The test is described as follows: Biacore, KD against parental 3F7 (the reference itself).
Test [3] shares this target. The test is described as follows: Biacore, purified IgG4 captured on anti-human IgG, FXIIa beta injected, 1:1 model. A general note: Surface plasmon resonance follows binding to a sensor surface in real time, without labels.
For test [4] the target is unchanged. The test is described as follows: Biacore, purified IgG captured on anti-human IgG, FXIIa beta injected at 0-40 nM, 1:1 model, 25°C.
Test [5] has as its target T1, Human FXII (unactivated Factor XII) (human, UniProt P00748 20-615).
T1 construct: Bought from Enzyme Research Laboratories; also called Hageman factor
T1 sequence: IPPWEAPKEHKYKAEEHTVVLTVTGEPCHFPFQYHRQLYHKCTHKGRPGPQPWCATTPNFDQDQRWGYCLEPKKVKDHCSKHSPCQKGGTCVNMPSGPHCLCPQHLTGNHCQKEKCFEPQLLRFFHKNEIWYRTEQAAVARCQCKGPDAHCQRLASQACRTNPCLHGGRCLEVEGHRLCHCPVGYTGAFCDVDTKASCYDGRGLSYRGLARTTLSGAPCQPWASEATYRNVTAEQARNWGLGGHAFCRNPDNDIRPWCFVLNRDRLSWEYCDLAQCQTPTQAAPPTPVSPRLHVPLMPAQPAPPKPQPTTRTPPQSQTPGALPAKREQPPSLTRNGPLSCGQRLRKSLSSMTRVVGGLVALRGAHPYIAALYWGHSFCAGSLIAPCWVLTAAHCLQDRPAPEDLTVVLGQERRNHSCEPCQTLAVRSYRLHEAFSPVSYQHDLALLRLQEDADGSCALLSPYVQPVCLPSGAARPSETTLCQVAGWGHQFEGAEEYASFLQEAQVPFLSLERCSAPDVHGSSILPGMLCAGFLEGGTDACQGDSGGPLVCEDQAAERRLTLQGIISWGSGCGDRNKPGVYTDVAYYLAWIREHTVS
The test is described as follows: Biacore, purified IgG captured on anti-human IgG, FXII injected at 0-500 nM, 1:1 model, 25°C.

Broadly, the Kd is the concentration at which binding is half-saturated. High values mean weaker binding, low ones tighter binding. A word on the koff: it is the rate constant with which the complex falls apart. Read a high koff as fast dissociation. What is called kon is a measure of how fast the partners come together. High values mean fast association, low ones slow association.

B1: 3F7 monoclonal antibody (fully human IgG4/lambda) (antibody, V domains shown)
VH: EVQLLESGGGLVQPGGSLRLSCAASGFTFSKYIMQWVRQAPGKGLEWVSGIRPSGGTTVYADSVKGRFTISRDNSKNTLYLQMNSLRAEDTAVYYCARALPRSGYLISPHYYYYALDVWGQGTTVTVSS
VL: QSELTQPPSASGTPGQRVTISCSGSSSNIGRNYVYWYQQVPGTAPKLLIYSNNQRPSGVPDRFSGSKSGTSASLVISGLRSEDEADYYCAAWDASLRGVFGGGTKLTVLG
notes: also called 3F7 mAb; MAb 3F7
Take B1: the potency in FXIIa amidolytic activity assay, against OT2 in test [1] turned out to be 2 fold. Further, the Fold affinity improvement in the test with Human FXIIa beta (human) [2] came out at 1 fold. The Kd in the test with Human FXIIa beta (human) [3] is 8.6 nM; in the test with Human FXIIa beta (human) [4] it was 6.2 nM; in test [5] it was 121 nM. This molecule returned a dissociation rate constant (koff) in the test with Human FXIIa beta (human) [3] of 0.0011 s⁻¹. Besides, in the test with Human FXIIa beta (human) [3], the kon turned out to be 120000 M⁻¹ s⁻¹.

For the origin of these results see patent EP2548892A1 (CSL Behring GmbH, dated 2013).
